Reference: patent US6867177B2, “CD39/ECTO-adpase as a treatment for thrombotic and ischemic disorders” (The Trustees of Columbia University in the City of New York, priority 1999, dated 2005)

Assays:
murine platelets = experiment: Murine platelet aggregation (aggregometry of platelet-rich plasma from treated mice); assay type: cell-based; details: for platelet aggregation response to ADP: ADP 2.5 or 10 μM, CD39 4 mg/kg, aspirin 5 mg/kg; for platelet aggregation response to ADP / platelet aggregation response to collagen / platelet aggregation response to sodium arachidonate: agent given to mice 45 minutes prior to harvest of blood; for platelet aggregation response to collagen: collagen 2.5 or 10 μg/mL; for platelet aggregation response to sodium arachidonate: sodium arachidonate 0.1 mM
Protocol: Preparation of Murine Platelets: Mice (untreated, treated with 4 mg/kg CD39, or treated with […]) were anesthetized and heparinized (10 U/g), prior to blood collection via cardiac puncture performed with 22 gauge, 1 cc syringe. Immediately following collection, 80 μl 3.8% trisodium citrate was added to each mL of blood. Blood from 6-8 mice was pooled in a 15 mL tube centrifuge tube (Flacon, polypropylene). Platelet-rich plasma (PRP) was prepared with an initial whole blood centrifugation (900 g, 3 min, 20° C., no brake), and a second centrifugation of PRP (100 g, 2 min) to eliminate residual erythrocytes and leukocytes. The stock suspension of PRP was maintained at room temperature. PRP platelet counts were 400-700×10^3 platelets per μl.
Platelet aggregation studies: PRP (200 μl) was pre-incubated (3 min, 37° C.) with 100 μl Tris-buffered saline (TSG) buffer (15 mM Tris, 134 mM NaCl, 5 mM glucose, pH 7.4) in an aggregometer cuvette (Lumiaggregometer; Chrono-Log, Havertown, Pa.). After the 3 min, 37° C. preincubation ≈5.0 C 10^5 platelets, platelet agonist (ADP, collagen, sodium arachidonate) were added at the concentration indicated. Total volumes were adjusted to 300 μl with TSG buffer, and the aggregation response recorded for 2-4 min. Agonists were prepared as 100× solution: ADP was in TSG buffer, collagen in acidified isotonic glucose ([…], Munchen, Germany), and sodium arachidonate in 0.85% saline. All aggregation studies were completed within two hours of blood collection.
Quantitation of Platelet Aggregation: Area under the curve was estimated by multiplying the height of the curve with its width at half height. The former was measured form pre-simulation baseline to the middle of the highest point of the curve. However, when curves were less than ⅓ of maximal height, the lowest point of the shape change portion of the curve was considered baseline. […] These criteria underestimate large aggregation responses, and overestimate small ones. Thus we knowingly underestimated the effects of compounds with great inhibitory capacity. This approach was preferred over one that could have overemphasized inhibitory potential.
Murine platelet aggregation: C57/6J BL mice (6-8 weeks) were obtained from Jackson Laboratories, Bar Harbor, Me.). Untreated mice, and mice treated with 4 mg/kg CD39, with 5 mg/kg aspirin or phosphate buffered saline, were anesthetized and heparinized (10 U/g), prior to blood collection via cardiac puncture; 80 μL 3.8% trisodium citrate was added to each mL of blood. Samples from 6-8 mice were pooled and platelet-rich plasma (PRP) prepared by centrifugation (900 g, 3 min, 20° C., followed by 100 g, 2 min to eliminate residual erythrocytes and leukocytes). PRP contained 400-700×10^3 platelets per μL. PRP (200 μL) was preincubated (3 min, 37° C.) with 100 μL Tris-buffered saline (TSG) buffer (15 mM Tris, 134 mM NaCl, 5 mM glucose, pH 7.4)^11,23,24 in an aggregometer cuvette (Lumiaggregometer; Chrono-Log, Havertown, Pa.). Platelet agonists (ADP, collagen (Hormon Chemie, Munchen, Germany), or sodium arachidonate (Nu-Check Prep, Elysian, Minn.)) were added at the final concentrations indicated. Aggregation responses were recorded for 2-4 min, and expressed as area under the curve (height times width at ½ height). All experiments were completed within two hours of blood collection.

[1] = Measurement of bleeding time (tail vein incision); assay type: in vivo; details: mice not subjected to other manipulation; intravenous
Protocol: Measurement of Bleeding Time: Bleeding times were measured in mice which were not subjected to experimental manipulation other than by receiving either vehicle (saline) or CD39 prepared in physiological saline and administered intravenously 5 minutes prior to the experiment. Following anesthesia, a standardized incision was made on the central dorsal tail vein, and the tail was then immersed in physiological saline at 37.5° C.

[2] = tested on: stroke (focal cerebral ischemia and reperfusion); details: for postischemic cerebral perfusion (cerebral blood flow): laser Doppler, ischemic vs nonischemic hemisphere; for cerebral infarct volume: preoperatively administered, CD39 4 and 8 mg/kg, aspirin 5 mg/kg, 24 hours
[3] = tested on: lung ischemia and reperfusion; experiment: Mouse model of lung ischemia and reperfusion; assay type: in vivo, mice; details: CD39 8 mg/kg; 1 hour ischemia, 2 hour reperfusion, observation 1 hour; four experiments
Protocol: In these studies, murine ischemic reperfusion model was used. In the mouse model of lung ischemia, mice were initially anesthetized intraperitoneal with 0.1 mg/mouse weight (g) of ketamine and 0.01 mg/mouse weight (g) of xylazine, following by intraperitoneal continuous infusion of one third of the initial dose per hour using a syringe pump (model 100 series, KD Scientific Inc. Mass.). After ensuring appropriate depth of anesthesia, mice were intubated via tracheostomy and placed on a Harvard ventilator (tidal volume=0.75 mL, respiratory rate=120/min) with room air, followed by bilateral thoracotomy. The left hilum was cross-clamped for a period of 1 hour after which the cross-clamp was released. Reperfusion proceeded for 2 hours.
For all experiments, the surgical operator was blinded by a colleague in the laboratory to the specific substance being injected (vehicle or CD39, 8 mg/kg). Experimental procedures were as follows. […]

[4] = cited from earlier work
platelets = details: cited from earlier work
[5] = peptide affinity purified from CHO conditioned medium; cited from earlier work
[6] = treatment either prior to, or up to 3 hours following stroke
[7] = control, CD39-/- and reconstituted CD39-/- mice

CC(=O)Oc1ccccc1C(=O)O [aspirin, reference compound]
platelet aggregation response to ADP (murine platelets): strongly aggregated
platelet reactivity to collagen at any collagen dose (murine platelets; any collagen dose): little effect
platelet aggregation response to collagen (murine platelets): strongly aggregated
platelet aggregation response to sodium arachidonate (murine platelets): abrogated
bleeding time [1]: markedly increased
postischemic cerebral perfusion (cerebral blood flow) [2]: did not improve
cerebral infarct volume [2]: tendency to decrease cerebral infarct volume, the effect was not statistically significant

B1: CD39: recombinant soluble CD39 (SEQ ID NO:2): four apyrase domains, lacking the two transmembrane regions, IL-2 leader, expressed in CHO cells (protein, listed as Homo sapiens)
chain: TQNKALPENVKYGIVLDAGSSHTSLYIYKWPAEKENDTGVVHQVEECRVKGPGISKFVQKVNEIGIYLTDCMERAREVIPRSQHQETPVYLGATAGMRLLRMESEELADRVLDVVERSLSNYPFDFQGARIITGQEEGAYGWITINYLLGKFSQKTRWFSIVPYETNNQETFGALDLGGASTQVTFVPQNQTIESPDNALQFRLYGKDYNVYTHSFLCYGKDQALWQKLAKDIQVASNEILRDPCFHPGYKKVVNVSDLYKTPCTKRFEMTLPFQQFEIQGIGNYQQCHQSILELFNTSYCPYSQCAFNGIFLPPLQGDFGAFSAFYFVMKFLNLTSEKVSQEKVTEMMKKFCAQPWEEIKTSYAGVKEKYLSEYCFSGTYILSLLLQGYHFTADSWEHIHFIGKIQGSDAGWTLGYMLNLTNMIPAEQPLSTPLSHST
platelet aggregation response to ADP (murine platelets): completely abrogated
platelet aggregation response to collagen (murine platelets): attenuated
platelet reactivity to higher doses of collagen (murine platelets; higher doses of collagen): do respond
platelet reactivity to low-dose collagen (murine platelets; low-dose collagen): inhibited
platelet aggregation response to sodium arachidonate (murine platelets): did not inhibit the initial activation phase of platelet aggregation to arachidonate, but rapidly disaggregated platelets during the initial recruitment phase
bleeding time [1]: dose-dependent increase
mouse survival following functional removal of the contralateral (nonischemic) lung [3]: 100%
cerebroprotection ([2]; administered three hours after onset of stroke (8 mg/kg)): significant cerebroprotection
platelet accumulation in the ipsilateral cerebral hemisphere ([2]; intravenously injected, 111In-labeled platelets, 24 hours of reperfusion): inhibited
fibrin accumulation in the ipsilateral cerebral hemisphere ([2]; intravenously injected, fibrin immunoblot): inhibited
postischemic cerebral perfusion (cerebral blood flow) [2]: improved
intracerebral hemorrhage ([2]; mouse, in vivo): without an increase
cerebral infarct volume [2]: dose-dependent diminution
mortality [2, 6]: reduced
neurological deficit [2, 6]: reduced
cerebral infarct volume (stroke in CD39-/- mice; CD39-/- mice reconstituted with CD39, 24 hours): markedly diminished
intracerebral hemorrhage (stroke in CD39-/- mice; [7]): did not differ between groups
neurological deficit scores (stroke in CD39-/- mice; [7]): did not differ between groups
overall mortality (stroke in CD39-/- mice; [7]): did not differ between groups
elimination half-time in mice [4]: 2 days
ADP-induced platelet aggregation in vitro (platelets): blocked
apyrase activity [5]: potent apyrase activity
